Values of other authors, collected in paper PMC12384152.

Target: β-spectrin repeats 14-15 (Homo sapiens) (UniProt P11277)
Chain of UniProt P11277 (P11277 1691-1907): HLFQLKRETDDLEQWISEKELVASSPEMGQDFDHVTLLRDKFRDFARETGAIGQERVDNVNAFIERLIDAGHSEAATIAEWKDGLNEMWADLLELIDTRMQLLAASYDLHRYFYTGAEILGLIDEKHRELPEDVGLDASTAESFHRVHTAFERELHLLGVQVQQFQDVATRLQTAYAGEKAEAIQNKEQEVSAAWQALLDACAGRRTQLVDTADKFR

Kd: 15 nM
Substance: ankyrin-1 ZU5 (from UniProt P16157)
